Data from publication PMC3919264, “The crystal structure and biochemical characterization of Kif15: a bifunctional molecular motor involved in bipolar spindle formation and neuronal development” (Acta Crystallographica Section D: Biological Crystallography, 2013).

Biological target: taxol-polymerized microtubules from bovine brain tubulin (bovine (purified from bovine brain), UniProt Q6B856 1-445)
Assay: cell-based or functional assay

B1: Homo sapiens Kif15 motor domain with cover strand and neck linker (Kif15 1-375) (domain or fragment, human, UniProt Q9NS87 1-375, looked up)
chain: MAPGCKTELRSVTNGQSNQPSNEGDAIKVFVRIRPPAERSGSADGEQNLCLSVLSSTSLRLHSNPEPKTFTFDHVADVDTTQESVFATVAKSIVESCMSGYNGTIFAYGQTGSGKTFTMMGPSESDNFSHNLRGVIPRSFEYLFSLIDREKEKAGAGKSFLCKCSFIEIYNEQIYDLLDSASAGLYLREHIKKGVFVVGAVEQVVTSAAEAYQVLSGGWRNRRVASTSMNRESSRSHAVFTITIESMEKSNEIVNIRTSLLNLVDLAGSERQKDTHAEGMRLKEAGNINRSLSCLGQVITALVDVGNGKQRHVCYRDSKLTFLLRDSLGGNAKTAIIANVHPGSRCFGETLSTLNFAQRAKLIKNKAVVNEDTQG
MT activation of Mant-ADP release, stopped flow, 25°C, various MT concentrations with chasing Mg2+-ATP (MTs here from pig brain tubulin; preliminary data): ~1000 fold
